Laboratory results from patent publication US20200331998A1.

Target: UCART19 CAR (anti-CD19 chimeric antigen receptor with a 4G7-derived scFv, on UCART19 cells)
Experiment: flow cytometry blocking assay: fresh UCART19 cells pre-incubated with unconjugated antibody, then stained with labelled soluble CD19-hFc; ligand: m14

UCART19 CAR (anti-CD19 chimeric antigen receptor with a 4G7-derived scFv, on UCART19 cells), sequence (chain, as listed by the source mutant): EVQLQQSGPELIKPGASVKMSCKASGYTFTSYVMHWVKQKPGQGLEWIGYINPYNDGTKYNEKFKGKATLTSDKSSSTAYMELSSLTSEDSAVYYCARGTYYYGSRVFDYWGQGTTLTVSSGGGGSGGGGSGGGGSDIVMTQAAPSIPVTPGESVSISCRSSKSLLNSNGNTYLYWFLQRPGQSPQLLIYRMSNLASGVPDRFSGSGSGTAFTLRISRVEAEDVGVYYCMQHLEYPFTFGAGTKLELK

CAR+ (% cells stained by APC-sCD19) at 0.2 µg/mL antibody: 52.4% | CAR+ (% cells stained by APC-sCD19) at 0.39 µg/mL antibody: 52.9% | CAR+ (% cells stained by APC-sCD19) at 0.78 µg/mL antibody: 53.4% | CAR+ (% cells stained by APC-sCD19) at 1.56 µg/mL antibody: 52.7% | CAR+ (% cells stained by APC-sCD19) at 3.125 µg/mL antibody: 52.9% | CAR+ (% cells stained by APC-sCD19) at 6.25 µg/mL antibody: 52.6% | CAR+ (% cells stained by APC-sCD19) at 12.5 µg/mL antibody: 52.3% | CAR+ (% cells stained by APC-sCD19) at 25 µg/mL antibody: 52% | CAR+ (% cells stained by APC-sCD19) at 50 µg/mL antibody: 53.3% | CAR+ (% cells stained by APC-sCD19) at 100 µg/mL antibody: 54.8%
Substance: Isotype Control (antibody)
